In US20190382481A1 (Janssen / Centocor, published 2019):

Experiments:
[1] = target: T1, human recombinant (r)CD33 (human, UniProt P20138 18-259); assay: method not stated
T1 construct: also called human rCD33

[2] = target: cynomologous (cyno) rCD33 (cyno); assay: method not stated
[3] = target: T2, human rCD3e (human, UniProt P07766 23-126); assay: method not stated
T2 construct: also called human recombinant CD3 epsilon

[4] = target: T3, cyno monkey rCD3e (cyno monkey, UniProt Q95LI5 22-117, limits assumed); assay: method not stated
T3 construct: also called cyno recombinant CD3 epsilon
T3 sequence (looked up): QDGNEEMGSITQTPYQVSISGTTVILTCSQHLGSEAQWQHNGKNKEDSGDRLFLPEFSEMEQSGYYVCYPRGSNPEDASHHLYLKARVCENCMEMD

[5] = target: CD33 on human CD33 expressing AML cell lines and primary human cells (endogenous) (human, UniProt P20138 18-364); assay: cell-based or functional assay
[6] = target: T4, Cyno CD33 full length (over-expressed on transduced HEK293F / HEK 293T cells) (cyno); assay: flow cytometry, HEK293F cells expressing cyno CD33
T4 construct: also called cyCD33; cyno CD33 expressing cells
Procedure: (§1) The purified antibodies were assessed for binding to stably transfected HEK293F cells expressing human CD33 or cyno CD33 (generation described above) along with the parental HEK293F as negative control. Cells were harvested from tissue culture flasks using non-enzymatic dissociation buffer (Thermo Scientific). The flasks were rinsed twice with PBS and dissociation buffer was added to the flask, and the flask was incubated for 10 minutes at 37° C. until the cells became non-adherent. The cells were centrifuged at 300 g for 5 minutes and resuspended at 1.0×10⁶ cells/ml in staining buffer (Becton Dickinson; Franklin Lakes, N.J.). 50,000 cells/well of each cell type was plated in 50 μl of staining buffer in round bottom plates (Becton Dickinson). 50 μl of 2× concentration test mAb or isotype control was added at 3 dilutions and zero (120 nM, 12 nM, and 1.2 nM and 0 nM), and the resultant solution was incubated 30 min at 4° C. […] 30 ul running buffer containing Sytox Green live/dead dye (ThermoFisher) was added to all wells with cells and the plates were read on an iQue IntelliCyt flow cytometer. […] Antibody binding was assessed by the mean fluorescence intensity in the AF647 channel. […]

[7] = target: T5, Human CD33 full length (over-expressed on transduced HEK293F cells) (human, UniProt P20138 18-364); assay: flow cytometry, HEK293F cells expressing human CD33
T5 construct: also called huCD33; human CD33 expressing cells
Procedure: as §1

[8] = target: T6, Human CD33-V-HSA (human); assay: SPRi off-rate screen, domain constructs
T6 construct: V domain of human CD33 fused to HSA (C58S) and six-histidine tag; also called C33W3; huCD33-V-HSA

[9] = target: T7, Human CD33-C2-HSA (human); assay: SPRi off-rate screen, domain constructs
T7 construct: C2 domain of human CD33 fused to HSA (C58S) and six-histidine tag; also called C33W4; huCD33-C2-HSA

[10] = target: T8, Human CD33-V-HSA (human); assay: IBIS SPRi off-rate screen
T8 construct: V domain of human CD33 fused to HSA; also called C33W3; huCD33-V-HSA

[11] = target: T9, Human CD33-C2-HSA (human); assay: IBIS SPRi off-rate screen
T9 construct: C2 domain of human CD33 fused to HSA; also called C33W4; huCD33-C2-HSA

Chain of CD33 on human CD33 expressing AML cell lines and primary human cells (endogenous) (P20138 18-364 limits assumed): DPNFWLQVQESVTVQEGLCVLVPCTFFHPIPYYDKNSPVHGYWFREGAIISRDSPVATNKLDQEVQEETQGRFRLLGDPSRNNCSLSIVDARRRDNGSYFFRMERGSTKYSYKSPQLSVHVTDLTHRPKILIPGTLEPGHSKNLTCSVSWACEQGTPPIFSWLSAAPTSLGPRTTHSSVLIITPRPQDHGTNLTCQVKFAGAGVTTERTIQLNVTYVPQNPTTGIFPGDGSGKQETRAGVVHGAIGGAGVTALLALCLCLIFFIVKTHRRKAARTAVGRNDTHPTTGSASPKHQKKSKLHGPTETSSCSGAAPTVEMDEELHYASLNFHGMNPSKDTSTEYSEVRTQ
T1 sequence (P20138 18-259 limits assumed): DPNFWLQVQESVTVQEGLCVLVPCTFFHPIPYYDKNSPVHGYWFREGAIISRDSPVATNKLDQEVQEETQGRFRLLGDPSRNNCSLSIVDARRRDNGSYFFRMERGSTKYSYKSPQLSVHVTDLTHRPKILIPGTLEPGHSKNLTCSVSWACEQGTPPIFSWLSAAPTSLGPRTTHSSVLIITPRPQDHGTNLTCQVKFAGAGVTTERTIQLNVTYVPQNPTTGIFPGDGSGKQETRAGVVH
Chain of cynomologous (cyno) rCD33 (cyno) (chain, as listed by the source limits assumed): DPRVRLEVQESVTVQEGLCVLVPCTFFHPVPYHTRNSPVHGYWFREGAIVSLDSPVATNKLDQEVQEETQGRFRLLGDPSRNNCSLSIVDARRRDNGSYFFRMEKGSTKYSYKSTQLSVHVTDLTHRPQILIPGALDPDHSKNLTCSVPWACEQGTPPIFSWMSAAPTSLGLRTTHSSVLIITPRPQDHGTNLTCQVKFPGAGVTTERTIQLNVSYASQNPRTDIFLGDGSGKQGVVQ
T4 sequence (chain, as listed by the source limits assumed): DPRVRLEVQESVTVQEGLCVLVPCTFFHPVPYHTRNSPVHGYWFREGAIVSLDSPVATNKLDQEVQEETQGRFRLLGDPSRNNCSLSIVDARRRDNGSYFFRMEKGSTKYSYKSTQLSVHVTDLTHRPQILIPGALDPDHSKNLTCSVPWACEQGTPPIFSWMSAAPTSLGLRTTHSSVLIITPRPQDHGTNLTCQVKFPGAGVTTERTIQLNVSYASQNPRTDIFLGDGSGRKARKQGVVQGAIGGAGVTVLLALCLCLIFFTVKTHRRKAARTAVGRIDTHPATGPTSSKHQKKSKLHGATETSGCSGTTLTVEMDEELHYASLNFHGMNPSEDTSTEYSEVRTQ
T2 sequence (P07766 23-126 limits assumed): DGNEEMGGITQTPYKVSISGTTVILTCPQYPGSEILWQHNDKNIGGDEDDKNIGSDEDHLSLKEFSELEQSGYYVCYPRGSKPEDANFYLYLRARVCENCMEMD
T5 sequence (P20138 18-364 limits assumed): as the sequence (P20138 18-364 limits assumed) above

B1: C3CB189 (bispecific antibody, human IgG4 S228P, kappa, lambda, F234A L235A)
heavy 1: not shown
light 1: not shown
heavy 2: QVQLQQSGPRLVRPSQTLSLTCAISGDSVFNNNAAWSWIRQSPSRGLEWLGRTYYRSKWLYDYAVSVKSRITVNPDTSRNQFTLQLNSVTPEDTALYYCARGYSSSFDYWGQGTLVTVSSASTKGPSVFPLAPCSRSTSESTAALGCLVKDYFPEPVTVSWNSGALTSGVHTFPAVLQSSGLYSLSSVVTVPSSSLGTKTYTCNVDHKPSNTKVDKRVESKYGPPCPPCPAPEAAGGPSVFLFPPKPKDTLMISRTPEVTCVVVDVSQEDPEVQFNWYVDGVEVHNAKTKPREEQFNSTYRVVSVLTVLHQDWLNGKEYKCKVSNKGLPSSIEKTISKAKGQPREPQVYTLPPSQEEMTKNQVSLTCLVKGFYPSDIAVEWESNGQPENNYKTTPPVLDSDGSFLLYSKLTVDKSRWQEGNVFSCSVMHEALHNHYTQKSLSLSLGK
light 2: QSALTQPASVSGSPGQSITISCTGTSSNIGTYKFVSWYQQHPDKAPKVLLYEVSKRPSGVSSRFSGSKSGNTASLTISGLQAEDQADYHCVSYAGSGTLLFGGGTKLTVLGQPKAAPSVTLFPPSSEELQANKATLVCLISDFYPGAVTVAWKADSSPVKAGVETTTPSKQSNNKYAASSYLSLTPEQWKSHRSYSCQVTHEGSTVEKTVAPTECS
notes: Fully human IgG4-PAA bispecific made by Fab-arm exchange; CD33 arm C33B904 (C33H252/C33L118), CD3 arm CD3B376 (CD3H219/CD3L150; F405L, R409K); also called C33B904 × CD3B376
B1 was tested, and the Kd [1] was 0.00089 nM, the Kd [2] was 0.363 nM and the Kd [3] was 151 nM. For the same binder, the Kd [4] was 43.8 nM, the “T cell activation (CD25) in human whole blood with Kasumi-1, median EC50” value [5] was 0.085 nM and the “T cell activation (CD25) in human whole blood with MOLM-13, median EC50” value [5] was 0.037 nM. For the same binder, the “T cell activation (CD25) with KG-1 target cells, median EC50” value [5] was 0.0664 nM, the “T cell activation (CD25) with Kasumi-1 target cells, median EC50” value [5] was 0.0432 nM and the “T cell activation (CD25) with MOLM-13 target cells, median EC50” value [5] was 0.0283 nM. The “T cell activation (CD25) with OCI-AML3 target cells, median EC50” value [5] was 0.05 nM, the “T cell-mediated cytotoxicity of KG-1, median EC50, 6 donors, 48 h” value [5] was 0.168 nM and the “T cell-mediated cytotoxicity of Kasumi-1, median EC50, 6 donors, 48 h” value [5] was 0.05 nM. The “T cell-mediated cytotoxicity of Kasumi-1 spiked in human whole blood, median EC50, 48 h” value [5] was 0.124 nM, the “T cell-mediated cytotoxicity of MOLM-13, median EC50, 6 donors, 48 h” value [5] was 0.131 nM and the “T cell-mediated cytotoxicity of MOLM-13 spiked in human whole blood, median EC50, 48 h” value [5] was 0.111 nM. The “T cell-mediated cytotoxicity of OCI-AML3, median EC50, 6 donors, 48 h” value [5] was 0.183 nM and the “ex vivo cytotoxicity of CD33+ blasts in AML patient whole blood, median EC50” value [5] was 0.365 nM.

B2: C33B909 (antibody, V domains shown)
VH: EVQLVESGGGLVQPGRSLRLSCVASGFTFDDYAIHWVRQAPGKGLEWVSGLSWNGGNIGYADSVKGRFTISRDNAKNSLYLQMNSLKTEDTAFYYCTKDTPYGDYFDYWGQGTLVTVSS
VL: DIQMTQSPSSVWASVGDRVTITCRASQGISSWLAWYQQQPGKAPNLLIYRSSSLQSGVPSRFSGSGSGTDFTLTISSLQPEDFATYYCQQDNSFPYTFGQGTKLEIKR
notes: OMNIMouse campaign; also called C33H249/C33L115
B2: no binding [6]; no binding [7].

B3: C33B782 (antibody, human IgG4 S228P, lambda, F234A L235A)
heavy: not shown
light: SYELTQPPSVSVSPGQTASITCSGNKLGAKFASWYQQKPGQSPVLVIYQDNKRPSGIPERFSGSNSGNTATLTISGTQAVDEADYYCQAWDSSTVVFGGGTKLTVLGQPKAAPSVTLFPPSSEELQANKATLVCLISDFYPGAVTVAWKADSSPVKAGVETTTPSKQSNNKYAASSYLSLTPEQWKSHRSYSCQVTHEGSTVEKTVAPTECS
notes: huIgG4 PAA; OMNIRat campaign; also called C33H72/C33L40
B3: no binding [8]; no binding [9].

B4: C33B792 (antibody, human IgG4 S228P, lambda, F234A L235A)
heavy: not shown
light: SYELTQPPSVSVSPGQTASITCSGDKLGNKYASWYQQKPGQSPVLVIYQDTKRPSGIPERVSGSNSGNTATLTISGTQAMDEADYHCQAWDSSTVVFGGGTKLTVLGQPKAAPSVTLFPPSSEELQANKATLVCLISDFYPGAVTVAWKADSSPVKAGVETTTPSKQSNNKYAASSYLSLTPEQWKSHRSYSCQVTHEGSTVEKTVAPTECS
notes: huIgG4 PAA; OMNIRat campaign; also called C33H87/C33L35
B4: no binding [8]; no binding [9].

B5: C33B778 (antibody, human IgG4 S228P, lambda, F234A L235A)
heavy: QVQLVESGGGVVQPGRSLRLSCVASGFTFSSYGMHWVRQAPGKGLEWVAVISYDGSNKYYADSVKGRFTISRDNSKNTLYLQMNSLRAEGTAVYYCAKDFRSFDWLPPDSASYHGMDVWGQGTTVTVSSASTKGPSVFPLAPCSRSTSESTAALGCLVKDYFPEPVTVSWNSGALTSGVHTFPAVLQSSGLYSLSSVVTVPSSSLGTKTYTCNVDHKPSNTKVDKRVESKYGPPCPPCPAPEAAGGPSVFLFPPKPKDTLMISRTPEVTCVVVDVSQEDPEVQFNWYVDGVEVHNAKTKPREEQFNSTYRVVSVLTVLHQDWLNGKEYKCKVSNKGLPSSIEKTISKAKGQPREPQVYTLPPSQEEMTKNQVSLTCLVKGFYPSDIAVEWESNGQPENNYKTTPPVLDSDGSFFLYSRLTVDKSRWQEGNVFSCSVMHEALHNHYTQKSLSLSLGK
light: SYELTQPPSVSVSPGQTASITCSGDKLGDKYACWYQQKPGQSPVLVIYQDGKRPSGIPERFSGSNFGNKATLTISGTQAMDEADYYCQAWDRNTVVFGGGTKLTVLGQPKAAPSVTLFPPSSEELQANKATLVCLISDFYPGAVTVAWKADSSPVKAGVETTTPSKQSNNKYAASSYLSLTPEQWKSHRSYSCQVTHEGSTVEKTVAPTECS
notes: huIgG4 PAA; HC C33H66, LC C33L60 (same V region as C33B73); also called C33F78
B5: no binding [10].

B6: C33B782 (antibody, human IgG4 S228P, lambda, F234A L235A)
heavy: not shown
light: SYELTQPPSVSVSPGQTASITCSGNKLGAKFASWYQQKPGQSPVLVIYQDNKRPSGIPERFSGSNSGNTATLTISGTQAVDEADYYCQAWDSSTVVFGGGTKLTVLGQPKAAPSVTLFPPSSEELQANKATLVCLISDFYPGAVTVAWKADSSPVKAGVETTTPSKQSNNKYAASSYLSLTPEQWKSHRSYSCQVTHEGSTVEKTVAPTECS
notes: huIgG4 PAA; HC C33H72, LC C33L40 (same V region as C33B77); also called C33F82
B6: no binding [10]; no binding [11].

B7: C33B792 (antibody, human IgG4 S228P, lambda, F234A L235A)
heavy: not shown
light: SYELTQPPSVSVSPGQTASITCSGDKLGNKYASWYQQKPGQSPVLVIYQDTKRPSGIPERVSGSNSGNTATLTISGTQAMDEADYHCQAWDSSTVVFGGGTKLTVLGQPKAAPSVTLFPPSSEELQANKATLVCLISDFYPGAVTVAWKADSSPVKAGVETTTPSKQSNNKYAASSYLSLTPEQWKSHRSYSCQVTHEGSTVEKTVAPTECS
notes: huIgG4 PAA; HC C33H87, LC C33L35 (same V region as C33B87); also called C33F92
B7: no binding [10]; no binding [11].

B8: C33B836 (antibody, human IgG4 S228P, lambda, F234A L235A)
heavy: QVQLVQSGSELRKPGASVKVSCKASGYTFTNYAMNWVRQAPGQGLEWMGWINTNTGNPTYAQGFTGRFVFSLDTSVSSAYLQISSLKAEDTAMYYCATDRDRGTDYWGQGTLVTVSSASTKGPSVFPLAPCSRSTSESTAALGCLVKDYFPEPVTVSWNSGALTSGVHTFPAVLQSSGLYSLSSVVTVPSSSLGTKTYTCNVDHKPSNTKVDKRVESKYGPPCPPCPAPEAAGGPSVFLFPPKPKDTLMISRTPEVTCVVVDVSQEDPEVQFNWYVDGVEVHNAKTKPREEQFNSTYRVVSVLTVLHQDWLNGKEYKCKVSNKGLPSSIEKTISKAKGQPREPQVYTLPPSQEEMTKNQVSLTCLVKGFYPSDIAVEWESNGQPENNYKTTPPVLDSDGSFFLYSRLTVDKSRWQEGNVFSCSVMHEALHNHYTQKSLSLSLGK
light: QSALTQPASVSGSPGQSITISCTGTSSDVGDYNYVSWYQQHPGKVPKLMIYDVSNRPSGVSNRFSGSMSGNTASLTISGLQAEDEADYYCSSYSSSSALEVFGGGTKLTVLGQPKAAPSVTLFPPSSEELQANKATLVCLISDFYPGAVTVAWKADSSPVKAGVETTTPSKQSNNKYAASSYLSLTPEQWKSHRSYSCQVTHEGSTVEKTVAPTECS
notes: huIgG4 PAA; HC C33H80, LC C33L73 (same V region as C33B48); also called C33F53
B8: no binding [11].
